Data taken from the RNAGym collection of RNA variant scans (doi:10.1073/pnas.2313332121).

B1: TPR t1 (parent)
chain: GACCAAUCUGCCCUCAGAGCUCGAGAACAUCUUCGGAUGCAGAGGAGGCAGGCUUCGGUGGCGCGAUAGCGCCAACGUCCUCAACCUCCAAUGCAUCCCACCACAUGAUGAUGCCUGAAGAGCCUUGGUUUUUUG

Variants of: B1
Assay: polymerase ribozyme fitness, log enrichment relative to wild type (log ratio); higher = more active; in vitro selection for triplet polymerase activity
Summary of the method: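 Genotype fitness is the logarithm of its enrichment divided by wild-type enrichment, using inverse-variance-weighted averages of replicates. That logarithm is base 2. Enrichment was measured by Illumina sequencing of input and output libraries from one triplicate in vitro selection round, with frozen incubation at −7 °C, on PCR-built, transcribed mutant libraries of each subunit of a heterodimeric triplet polymerase ribozyme, retaining genotypes with ≥10 input reads and ≥1 read per output.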

Row | Variant | polymerase ribozyme fitness (log ratio)
1 | GACCAAUCUGCCCUCAGAGCUCGAGAACAUCCUCGGAUGCAGAGGAGGCAGGCUUCGGUGGCGCGAUAGCGCCAACGUCCACAACCUCCGAUGCAUCCCACCACAUGAUGAAACCUGAAGAGCCUUGGUUUUUUG [U32C U81A A90G U112A G113A] | -1.38
2 | GACCAAUCUGCCCUCAGAGCUCGAGAACAUCUUCGGAUGCAGAGGAGGCAGGCUUCGGUGGCGCGAUAGUGCCAACGUCCUCAACCUCCAAUGCAUCCCACCACAUGAUGAUGCCUGAAGAGCCUUGGUUUCUUG [C70U U132C] | -0.89
3 | GACCAAUCUGCCCUCAGAGCUCGAGAACAUCUUCGGCUGCAGAGGAGGAAGGCUUCGGUGGCGCGAUAGCGCCAAGGUCCUCAACCUCCAAUGCAUCCCACCACAUGAUGAUGCCUAAAGAGGCAUGGUUUUUUG [A37C C49A C76G G117A C123G U125A] | -1.24
4 | GACCAAUCUGCCCUCAGAGCUCGAGAACAUCUUCGGAUGCAGAGGAGGGAGGCUUCGGUGGCGCGAUAGCGCCAACGUCCUCAACCUCCAAUGCAUCCCACCACAUGAUGAUGCCUGAAGAGACUUGGUUUUUUG [C49G C123A] | -0.0129
5 | GACCAAUCUGCCCUCAGAGCUCGAGAACAUCUUCGGAUGCAGAGGAGGCAGGCUUCGGUGGAGCGAUAGCGCCAACGUCCUCAACCUCCAAUCCAUCCCACCACAUGAUGAUGCCUGAAGAGCCUUGGUUUUUUG [C62A G93C] | -2.37
6 | GACCAAUCUGCCCUCAGAGCUCGAGAACAUCUUCGGAUGCAGAGGAGGCAGGCUUCGGUGGCGCGAUAGCGCCAACGUCCUCAACCUCCAAUGCAUCCCACCACAUGAUGAUGCCUGAAGAGCCUGAGUUUUUUG [U126G G127A] | -2.54
7 | GACCAAUCUGCCCUCAGAGCUCGAGAACAUCUUCGGAUGCAGAGGAGGCUGGCUUCGGUGGCGUGAUAGCGCCAACGUCCUCAACCUCCAAUGCAUCCCACCACCUGAUGAUGCCUGUAGAGCCUUGGUUUUUUG [A50U C64U A105C A118U] | -4.51
8 | GACCAAUGUGCCGUCAGAGCUCGAGAACAUCUUCGGAUGUAGAGGAGGCAGGCGUCGGUGGCGCGAUAGCGCCAACGUCCUCAACCUCCAAUGCAUCCCACCACAUGAUGAUGCCUGAAGAGCCUUGGUUUUUUG [C8G C13G C40U U54G] | 0.0381
9 | GACCAAUCUGCCCUCAGUGCUCGAGAACAUCUUCGGAUGCAGAGGAGGCAGGCUUCGGUGGCGCGAUAGCGCCAACGACCUCAACCUCCAAUGCUUCCCACCAUAUGAUGAUGCCUGAAGAGCCUUGGUUUUUUG [A18U U78A A95U C104U] | -4.27
10 | GACCAAUCUGCCCUCAGAGCUCGAGAACAUCUUCGGAUACAGAGGAGGCAGGCUUCGGUGGUGCGAUAGCGCCAACGUCCUCAACCUCCAAUGCAUCCCACCACAUGAUGAUGCCUGAAGAACCUUGGUUUUUUG [G39A C62U G122A] | -1.13
11 | GACCAAUCUGCCCUCAGAGCUCGAGAACAUCUUCGGAUGCAGAGAAGGCAGGCUUCGGUGGCGCGAUAACGCCAACGUCCUCAACCUCCAAUGCAUCCCACCACAUGAGGAUGCCUGCAGAGCCUUGGUUUUUUG [G45A G69A U109G A118C] | -6.05
12 | GACCAAUCUGCCCUCAGAGCUCGAGAACAUCUUCGGAUGCAGAGGAGGCAGGCUUCGGUGGCGCGAUAGCGCCAACGUCCUCAACCUCCAAUGCAUCCCACCACAUGAUGAUGCUUCAAGAGCCUUGGUUUUUUG [C115U G117C] | -3.48
13 | GACCAAUCUGCCCUCAGAGCUCGAGAACAUCUUCGGAUGCAGAGGAGGCAGGCUUCGGUGGCGCGAUAGCGCCAACGUCCUCAACCUCCAAUGCAUCCCACCACAUCAUGAUGCCUGAAGAGCCUUGGUUUUUUU [G107C G135U] | -5.77
14 | GACCAAACUGCCCUCAGAGCUCGAGAACAUCUUCGGAUGCAGAGGAGGCAGGCUUCGGUGGCGCGAUAGCGCCAACGUCCUCAACCUGCAAUGCAUCCCACCACAUGAUGAUGCCUGAAGAGCCUUGGUUUUUUG [U7A C88G] | -0.397
15 | GACCAAUCUGCCUUCAGAGCUCGAGAACAUCUUCGGAUGCAGAGGAGGCAGGCUUCGGUGGCGCGAUAGCGCCAACAUCCUCAACCUCCAAUGCAUCCCACCACAUGAUGAUGCCUGAAGAGCCUUGGUUUUUUG [C13U G77A] | 0.00416
16 | GACCAUUCUGCCCUCAGAGCUCGAGAACAUCUUCGGAUGCAGAGGAGGCAGGCUUCGGUGGCGCGAUAGCGCCAACGUCCUCAAGCUCCAAUGCAUCCCACCACAUGAUGAUGCCUGAAGAGCCUUGGUUUUUUG [A6U C85G] | -1.65
17 | GAUCAAUCUGCCCUCAGAGCUCGAGAACAUCUUCGGAUGCAGAAGAGGCAGGCUUCGGUGGCGCGAUAGCGCCAACGUCCUCAACCUCCAAUGCAUCCCACCACAUGAUGAUGCCUGAAGAGCCUUGGUUUUUUG [C3U G44A] | -1.11
18 | GACCAAUGUGCCCUGAGAGCUCGAGAACAUCUUCGGAUGCAGAGGAGGCAGGCUUCGGUGGCGCGAUAGCGCCAAGGUCCUCAACCUCCAAUGCAUCCCACCACAUGAUGAUGCCUGAAGAGCCUUGGUUUUUUG [C8G C15G C76G] | -1.01
19 | GACCAAUCUGCCCUCAGAGCUCGAGAACAUCUUCGGAUGCAGAGGAGGCAGGCUUCGGUGGCGCGAUAGCGCCAACGCCCUCAACCUCCAAUGCAUCCCAUCACAUGAUGAUGCCUGAAUUGCCUUGGUUUAUUG [U78C C101U G120U A121U U132A] | 1.42
20 | GACCAAUCUGACCUCAGAGCUCGAGAACAUCUUCGGAUGCAGAGGAGGCAGGCUUCGGUGGCGCGAUAGCGCCAACGUCCUCAACCUCCAAUGCUACCCAGCACACGAUGAUGCCUGAAGAGCAUUGGUUUUUUG [C11A A95U U96A C101G U106C C124A] | -3.67
21 | GACCAAUCUGUCUUCAGAGCUCGAGAACAUCUUCGGAUGCAGAGGAGGCAGGCUUCGGUGGCGCGAUAGCGCCAACGUCCUCCACCUCCAAUGCAUACCACCACAUGAUGAUGCCUGAAGAGCCUUGGUUUUUUG [C11U C13U A83C C97A] | -4.34

Row | Variant | polymerase ribozyme fitness (log ratio)
22 | GACCAAACUGUCCUCAGAGCUCGAGAUCAUCUUCGGAUGCAGAGGAGGCAGGCUUCGGUGGCGCGAUAGCGCCAACGUCCUCAACCUCCCAUGCAUCUCACCACAUGAUGAUGCCUGAAGAGCCUUGGUUUUUUG [U7A C11U A27U A90C C98U] | -7.09
23 | GACCAAUCGGCCCUCAGAGCUCGAGAACAUCUUCGGAUGCAGAGGAGGCAGGCUUCGGUGACGCGUUAGCGCCAACGUCCUAAACCUCCAAUGCAUCCCACCACAUGAUGAUGCCUGAAGAGCCUUGGUUUUUUG [U9G G61A A66U C82A] | -1.09
24 | GCCCAAUCUGCCCUCAGAGCUCGAGAACAUCUUCGGAUGCAGAGGAGGCAGGCUUCGGUGGCGCGAUAGCGCCAACGUCCUCAACCUCCAAUGCAUCCCACCACAUGAUGAUGCCUGAAUAGCAUUGGUUGUUUG [A2C G120U C124A U131G] | -1.15
25 | GACGAAUCUGCCCUCAGAGCUCGAGAACAUCUUCGGAUGCAGAGGAGGCAGGCUUCCGUGGCGUGAUAGCGCCAACGUCCUCGAUCUCCAAUGCAUCCCACCACAUGAUGAUGCCUGAAGAGCCUUGGUUUUUUG [C4G G57C C64U A83G C85U] | -3.12
26 | GACCAAUCUGCCCUCAGAGCUCGAGAACAUCUUGGGAUGCAGAGGAGGCAGGCUUCGGUGGCGCGAUAGCGCCAACGUCCUCAACUUCCAAUGCAUCCCACCACAUGAUGAUGCCUGAAGAGCCUUGGUUUUUUG [C34G C86U] | -6.51
27 | GACCAAUCUGCCCUCAGAGCUUGAGAACAUCUUCGGAUGCAGAGGAGGCAGGCUUCGGUGGCGCGAUAGCGCCAACGUCCUCAACCUCAAAUGCAUCCCACCACAUGAUGAUGCCUGAAGAGCCUUGGUUUUUUG [C22U C89A] | -4.83
28 | GACCAAUCUGCCCUCAGAGCUCGAGAACAUCUUCGGAUGCAGAGGAGGCAGGCUUCGGUGGCGCGAUAGCGCCAACGUCCUCAACCUCCAAUGCAUCCCACCACAUGAUGAUGCCCGAAGAGCCUUGGUUUUUUA [U116C G135A] | -0.82
29 | GACCAAUCUGCGCUCAGAGCUCGAGUACAUCUUCGGAUGCAGAGUAGGCAGGCUUCGGUGGCGCGAUAGCGCCAACGUCCUCAACCUCCAAUGCAUCCCACCACAAGAUGAUGCCUGAAGAGCCUUUGUUUUUUG [C12G A26U G45U U106A G127U] | -4.14
30 | GACCAAUCUGCCCUCAGAGCUCGAGAACAUCUUCGGAUGCAGAGGAGGCAGGCUUCGGUGCCGCGAUAGCGCCAACGUCCUCAACCUCCAAUGUAUCCCACCACAUGAUGAUGCUUGAAGGGCCUUGGUUUUUUG [G61C C94U C115U A121G] | -4.32
31 | GACCAAGCUGCCCUCAGAGCUCGAGAACAUCUUCGGAUGCAGAGGAGGCAGGCUUCGGUGGCGCGAUAGAGCCAACGUCCUCAACCUCCAAUGCAUCCCUCCACAUGAUGAUGCCUGAAGAGCCUUGGUUUUUUG [U7G C70A A100U] | -2.41
32 | GACCAAUCUGCCCUCAGAGCACGAGAACAUCUUCGGAUGCAGAGGAGGCAGGCUUCGGUGGGGCGAUAGCGCUAACGUCCUCAACCUCCAAUGCAUCCCACCACAUGAUGAUGCCUGAAGAGCCUUGGUUUUUUG [U21A C62G C73U] | -2.55
33 | GACCAAUCUGCCCUCAGAGCUCGAGAACAUCUUCGGAUGCAGAGGAGGCAGGCUUCGGUGGCACGAUACCGCCAACGUCCUCAACCUCCAAUGCAUCCCACCACAUGAUGAUGCCUGAAGAGCCUUGGUUUUUUG [G63A G69C] | -6.1
34 | GACCAAUCUGCCCUCAGAGCUCGAGAAGAUCUUCGGAUGCAGAGGAGGCAGGCUUCGGUGGCGCGAUAGCGCCAACGUCCUCAACCUCCAAUGCAUCCCACCACAUGAUGAUGUCUGAAGAGCCUUGGUUUUUUG [C28G C114U] | -5.68
35 | GACCAAUCUGCCCUCAGAGCUCGAGAACAUCUUCGGAUGCAGAGGAGGCAGGCUUCGGUGGCGCGAUAGCGCCAACGUCCUCAACCUCCAAUGCAUCCCACCACAUGAUCAGGCCUGAAGAGCCUUGGUUUUUUG [G110C U112G] | -4.99
36 | GACCAAUAUGCCCUCAGAGCUCGAGAACAUCUUCGGAUGCAGAGGAGGCAGGCUUCGGUGGCGCGAUAGCGCCAACGUCCUCAACCUCCAAUGCAUCCCACCAAAUGAUGAUGCCUGAAAAGCCUUGGUUUUUUG [C8A C104A G120A] | 1.08
37 | GACCAAACUGCCCUCAGAGCUCGAGAAGAUCUUCGGAUGCAGAGGAGGCAGGCUUCGGUGGCGCGAUAGCGCCAACGUCCUCAACCUCCAAUGCAUCCCACCACAUGAUGAUGCCUGAAGAGCCUUGGUUUUUUG [U7A C28G] | -2.71
38 | GACCAAUUUGCCCUCAGAGCUCGAGAACAUCUUCGGAUGCAGAGGAGGUAGGCUUCGGUGACGCGAUAGCGCCAACGUCCUCAACCUCCAAUGCAUCCCACCACAUGAUGAUGCCUGAAGAGCCUUGGUUUUUUG [C8U C49U G61A] | 0.346
39 | GACCAAUCUGCCCUCAGAGCUCGAGAACAUCUUCGGAUGCAGAGGAGGCUGGCUUCGGUGGCGCGAUAGCGCCAACGUCCUCAACCGCCAAUGCAUCCCACCACAUGAUGAUUCCUGAAGAGCCUUGGUUUUUUG [A50U U87G G113U] | -4.19
40 | GACCAAUCUGCCCGCAGAGCUCGAGAACAUCUUCGGAUGCAGAGGAGGCAGGCUUCGGUGGCGCGAUAGCUCCAACGUCCUCAACCUCCAAUGCAUCCCACCACAUGAUGAUGCCUGAAGAGCCUUGGUUUUUUG [U14G G71U] | -2.33
41 | GACCUAUCUGCCCUCAGAGCUCGAGAACAUCUUCGGAUGCAGAGGAGGCAGGCUUCGGUGGGGCGAUAGCGCCAACGUCCUCAACCUCCGAUGCAUCCCACCACAUGAUGAUGCCUGAAGAGUCUUGGUUUUUUG [A5U C62G A90G C123U] | -0.143
42 | GACCAAUCUGCCCUCAGAGCUCGAGAACAUUUUCGGAUGCAGACGAGGCAGGCUUCGGUAGCGCGAUAGCGCCAACGUCCUCAACCUCCAAUGCAUCCCACCACAUGAUGAUGCCUGAAGAGCCUUGGUUUUUUG [C31U G44C G60A] | -5.87
